Laboratory results published in the supplement of paper PMC7877785.
± gives the uncertainty stated by the source.

Assay: self-splicing fitness, log relative to wild type (ln ratio); higher = more splicing; Tetrahymena group I intron in knt gene, E. coli kanamycin selection, DiMSum; sequences stand for … in CUCUCU…GGAGGGAAAAGUUAUCAGGCAUGCACCUGGUAGCUAGUCUUUAAACCAAUAGAUUGCAUCGGUUUAAAAGGCAAGACCGUCAAAUUGCGGGAAAGGGGUCAACAGCCGUUCAGUACCAAGUCUCAGGGGAAACUUUGAGAUGGCCUUGCAAAGGGUAUGGUAAUAAGCUGACGGACAUGGUCCUAACCACGCAGCCAAGUCCUAAGUCAACAGAUCUUCUGUUGAUAUGGAUGCAGUUCACAGACUAAAUGUCGGUCGGGGAAGAUGUAUUCUUCUCAUAAGAUAUAGUCGGACCUCUCCUUAAUGGGAGCUAGCGGAUGAAGUGAUGCAACACUGGAGCCGCUGGGAACUAAUUUGUAUGCGAAAGUAUAUUGAUUAGUUUUGGAGUACUCGUGGUCG
Outline: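 Colonies from six replicate transformations of E. coli BL21(DE3) were pooled and amplicon-sequenced on an Illumina HiSeq 2500. The library placed an intron with all eight P1ex-region nucleotides randomised inside the knt kanamycin-resistance gene on pET-22b(+), and cells grew overnight at 37°C or 30°C on LB agar with or without 25 μg/mL kanamycin (plus 100 μg/mL carbenicillin, 50 μM IPTG, 0.2% rhamnose). Fitness is the DiMSum error-weighted combination of wild-type-normalised replicate fold changes, kanamycin versus none.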

Sequence	self-splicing fitness (ln) (30 °C)	self-splicing fitness (ln) (37 °C)
AAAAAGCAAUAUUACGACAA	-0.322 ± 0.1	0.331 ± 0.12
AAAAAGCAAUAUUACGACUU	0.0987 ± 0.065	-0.391 ± 0.085
AAAAAGCAAUAUUACGAGGG	-3.5 ± 0.18	-1.84 ± 0.16
AAAAAGCAAUAUUACGAUUU	0.149 ± 0.074	0.324 ± 0.095
AAAAAGCAAUAUUACGCACU	0.146 ± 0.079	0.322 ± 0.083
AAAAAGCAAUAUUACGCAUC	-2.24 ± 0.13	-1.34 ± 0.15
AAAAAGCAAUAUUACGCGAU	-2.51 ± 0.16	-1.07 ± 0.14
AAAAAGCAAUAUUACGCGCG	-0.0286 ± 0.091	-0.207 ± 0.11
AAAAAGCAAUAUUACGCUAU	-2.04 ± 0.11	-1.31 ± 0.11
AAAAAGCAAUAUUACGCUUC	-3.38 ± 0.3	–
AAAAAGCAAUAUUACGGAGG	-3.71 ± 0.21	-2.94 ± 0.2
AAAAAGCAAUAUUACGGAUA	-2.25 ± 0.11	-1.14 ± 0.097
AAAAAGCAAUAUUACGGCGA	-0.0921 ± 0.08	0.25 ± 0.12
AAAAAGCAAUAUUACGGGAC	-1.94 ± 0.098	-0.477 ± 0.11
AAAAAGCAAUAUUACGGGUG	-1.69 ± 0.062	-0.982 ± 0.077
AAAAAGCAAUAUUACGGGUU	-1.38 ± 0.075	-1.37 ± 0.11
AAAAAGCAAUAUUACGUAAC	-2.45 ± 0.13	-1.12 ± 0.13
AAAAAGCAAUAUUACGUAUA	-2.14 ± 0.14	-1.5 ± 0.15
AAAAAGCAAUAUUACGUCGG	-1.36 ± 0.082	-1.39 ± 0.1
AAAAAGCAAUAUUACGUCUA	-0.394 ± 0.053	0.068 ± 0.07
AAAAAGCAAUAUUACGUCUU	-0.301 ± 0.043	0.361 ± 0.063
AAAAAGCAAUAUUACGUGGU	-3.26 ± 0.11	-2.74 ± 0.12
AAAAAGCAAUAUUACGUUAG	-3.37 ± 0.17	-2.61 ± 0.16
AAACAGCAAUAUUACGAAAG	-2.21 ± 0.13	-1.57 ± 0.18
AAACAGCAAUAUUACGCCAA	-3.08 ± 0.25	-1.44 ± 0.15
AAACAGCAAUAUUACGCCAU	-3.26 ± 0.17	-2.42 ± 0.18

Sequence	self-splicing fitness (ln) (30 °C)	self-splicing fitness (ln) (37 °C)
AAACAGCAAUAUUACGCGAG	-1.6 ± 0.076	-1.12 ± 0.096
AAACAGCAAUAUUACGCGGA	-2.23 ± 0.11	-1.02 ± 0.093
AAACAGCAAUAUUACGCUGA	-3.16 ± 0.14	-1.52 ± 0.11
AAACAGCAAUAUUACGGAAG	-3.7 ± 0.2	-1.8 ± 0.17
AAACAGCAAUAUUACGGCAU	-0.814 ± 0.066	-0.78 ± 0.08
AAACAGCAAUAUUACGGCUU	-0.312 ± 0.052	0.129 ± 0.07
AAACAGCAAUAUUACGGGAA	-2.41 ± 0.17	-1.24 ± 0.12
AAACAGCAAUAUUACGGGAC	-3.74 ± 0.25	-2.35 ± 0.26
AAACAGCAAUAUUACGGGCC	-3.42 ± 0.17	-2.29 ± 0.16
AAACAGCAAUAUUACGGGUG	-3.09 ± 0.094	-1.73 ± 0.089
AAACAGCAAUAUUACGGGUU	-2.28 ± 0.09	-1.8 ± 0.11
AAACAGCAAUAUUACGGUGA	-0.283 ± 0.093	-0.496 ± 0.12
AAACAGCAAUAUUACGGUGC	-2.97 ± 0.11	-3.4 ± 0.17
AAACAGCAAUAUUACGGUGG	-2.61 ± 0.096	-1.93 ± 0.12
AAACAGCAAUAUUACGGUUG	-1.99 ± 0.061	-0.629 ± 0.075
AAACAGCAAUAUUACGGUUU	-3.64 ± 0.11	-2.51 ± 0.12
AAACAGCAAUAUUACGUCAG	-3.36 ± 0.12	-2.41 ± 0.12
AAACAGCAAUAUUACGUGUG	-2.38 ± 0.057	-1.38 ± 0.07
AAACAGCAAUAUUACGUUGA	-2.58 ± 0.094	-1.23 ± 0.089
AAACAGCAAUAUUACGUUGG	-3.61 ± 0.1	-2.43 ± 0.11
AAACAGCAAUAUUACGUUGU	-4.04 ± 0.1	-2.73 ± 0.1
AAACAGCAAUAUUACGUUUC	-3.8 ± 0.1	-2.73 ± 0.11
AAAGAGCAAUAUUACGAACC	–	-1.39 ± 0.46
AAAGAGCAAUAUUACGAUAG	-3.88 ± 0.23	-2.9 ± 0.2
AAAGAGCAAUAUUACGAUCU	-1.42 ± 0.12	-0.518 ± 0.12
AAAGAGCAAUAUUACGAUGA	-3.01 ± 0.25	-2.02 ± 0.19

Sequence	self-splicing fitness (ln) (30 °C)	self-splicing fitness (ln) (37 °C)
AAAGAGCAAUAUUACGCAAU	-3.59 ± 0.21	-1.65 ± 0.16
AAAGAGCAAUAUUACGCACC	-2.03 ± 0.15	-0.855 ± 0.17
AAAGAGCAAUAUUACGCAUU	-3.61 ± 0.19	-1.88 ± 0.21
AAAGAGCAAUAUUACGCUGA	-2.1 ± 0.14	-2.6 ± 0.26
AAAGAGCAAUAUUACGGCAA	-3.23 ± 0.36	-1.58 ± 0.19
AAAGAGCAAUAUUACGGGUC	-3.24 ± 0.21	-3.09 ± 0.37
AAAGAGCAAUAUUACGGUAG	-3.9 ± 0.27	-2.11 ± 0.18
AAAGAGCAAUAUUACGGUGC	-3.49 ± 0.17	-1.54 ± 0.15
AAAGAGCAAUAUUACGGUGG	-2.85 ± 0.15	-2.14 ± 0.25
AAAGAGCAAUAUUACGUAGA	-3.25 ± 0.24	-1.7 ± 0.2
AAAGAGCAAUAUUACGUGGA	-3.36 ± 0.32	-2.67 ± 0.26
AAAGAGCAAUAUUACGUGGU	-4.52 ± 0.27	-3.08 ± 0.18
AAAGAGCAAUAUUACGUGUA	-3.3 ± 0.16	-2.27 ± 0.22
AAAGAGCAAUAUUACGUGUC	-3.42 ± 0.15	-2.2 ± 0.12
AAAUAGCAAUAUUACGAGGC	-3.64 ± 0.47	–
AAAUAGCAAUAUUACGCCAG	-2.53 ± 0.24	-2.09 ± 0.42
AAAUAGCAAUAUUACGCCGU	-1.37 ± 0.21	0.028 ± 0.18
AAAUAGCAAUAUUACGCGGA	-1.9 ± 0.12	-0.348 ± 0.081
AAAUAGCAAUAUUACGCUGG	-1.94 ± 0.13	-1.15 ± 0.17
AAAUAGCAAUAUUACGCUGU	-3.27 ± 0.14	-1.89 ± 0.1
AAAUAGCAAUAUUACGGAUU	-0.612 ± 0.074	-1.1 ± 0.09
AAAUAGCAAUAUUACGGCAU	-0.403 ± 0.093	-0.183 ± 0.13
AAAUAGCAAUAUUACGGGAC	-3.19 ± 0.29	-1.57 ± 0.24
AAAUAGCAAUAUUACGGUCC	-1.33 ± 0.12	-0.378 ± 0.19
AAAUAGCAAUAUUACGGUGG	-3.94 ± 0.21	-2.68 ± 0.17
